Test [1] has as its target FcγRIIIA (UniProt P08637). Description: assay not described; affinity relative to wild type Medi3.
The target in test [2] is FcγRIIIA (UniProt P08637). Description: assay not described; affinity relative to wild type Medi2.

Sequence of UniProt P08637 (P08637 17-208 limits assumed): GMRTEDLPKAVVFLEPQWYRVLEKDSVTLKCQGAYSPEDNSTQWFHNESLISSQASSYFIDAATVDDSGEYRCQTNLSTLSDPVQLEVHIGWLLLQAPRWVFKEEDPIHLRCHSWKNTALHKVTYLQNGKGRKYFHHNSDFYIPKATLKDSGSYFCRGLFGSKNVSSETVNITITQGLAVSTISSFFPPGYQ

Take “Medi3-V1 (Fc variant of anti-EphA2 antibody Medi3, glutamate at residue 332)”: the fold higher binding affinity than Medi3 with FcγRIIIA [1] came to 8.8 fold.

In the test with FcγRIIIA [2], “Medi2-V3 ("V3" Fc variant of anti-Integrin αVβ3 antibody Medi2, aspartate 239, leucine 330, glutamate 332)” showed a fold higher binding affinity than Medi2 of 78 fold.

(Values after patent publication US20080071063A1.)
